± gives the standard deviation of the averaged measurements.
Test system: ATP
Test: switch fluorescence ratio, 500 uM ATP over buffer (Cy3 cluster intensity, sum of 5 cycles each) (fold (ratio)); higher = stronger signal-on switching upon ATP binding; sequences stand for … in TCGTCGGCAGCGTCAGATGTGTATAAGAGACAGTTTTTTTTTTTTTTTTTTTTTTTTT…TC
Settings: aptamer strand: ATP DNA aptamer (quencher-CACCTGGGGGAGTATTGCGGAGGAAGG + anchor), 100 nM annealed; ATP concentration: 500 uM
Method in brief: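 Clusters with intensities outside 100-1000 RFU were excluded. The remaining Cy3-labelled switching-strand clusters on a modified Illumina MiSeq flow-cell had been annealed to 100 nM quencher-labelled ATP aptamer and imaged in selection buffer, then after 15 min with 500 uM ATP at 22 °C, for five cycles separated by NaOH stripping and re-annealing. The fluorescence ratio, averaged per switch-domain sequence, is each cluster's summed target-cycle Cy3 intensity over its summed buffer-cycle Cy3 intensity.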
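Further: ATP exposure 15 min at 22 °C before imaging.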

Sequence	switch fluorescence ratio
GGTCTACTAG	0.999 ± 0.04
GGTCTAGGGT	1.03 ± 0.025
GGTCTATTTT	0.986 ± 0.023
GGTCTGGTTT	0.956 ± 0.013
GGTCTTAGAA	1.033 ± 0.0062
GGTCTTGCGA	0.9755 ± 0.0078
GGTCTTTAGG	0.99184 ± 0.00074
GGTCTTTGAA	0.979 ± 0.023
GGTGAAAAGC	1.02 ± 0.059
GGTGAAGGTG	1.355 ± 0.0092
GGTGAAGTCA	1 ± 0.024
GGTGAAGTGT	1 ± 0.0051
GGTGAATGGG	1.01 ± 0.032
GGTGACGGGC	0.978 ± 0.045
GGTGAGATTA	0.9804 ± 0.0073
GGTGAGGGCA	0.99 ± 0.015
GGTGAGGGTG	1.1 ± 0.013
GGTGATACAG	1.003 ± 0.0051
GGTGATAGGA	0.98 ± 0.034
GGTGATATGT	0.997 ± 0.018
GGTGATCCTG	0.977 ± 0.028
GGTGATCTTT	0.965 ± 0.044

Sequence	switch fluorescence ratio
GGTGCAGGGG	1.11 ± 0.023
GGTGCAGGTG	1.74 ± 0.59
GGTGCATGGC	1.04 ± 0.04
GGTGCCGGGG	1.02 ± 0.042
GGTGCCGGTT	0.997 ± 0.054
GGTGCCTGTT	1 ± 0.011
GGTGCGCCTT	0.958 ± 0.013
GGTGCGGGTG	1.03 ± 0.051
GGTGCTAAGG	1.02 ± 0.021
GGTGCTGCTA	0.984 ± 0.019
GGTGCTTTGG	0.993 ± 0.046
GGTGCTTTTT	0.987 ± 0.023
GGTGGAAGGA	1.02 ± 0.029
GGTGGCAAAT	1.01 ± 0.013
GGTGGCCGGT	0.987 ± 0.021
GGTGGCGGAA	0.996 ± 0.037
GGTGGCGGGG	0.987 ± 0.019
GGTGGCTTGC	1.014 ± 0.0032
GGTGGGACGG	0.991 ± 0.039
GGTGGGAGGC	0.999 ± 0.059
GGTGGGATGC	1.02 ± 0.076
GGTGGGGAGC	1 ± 0.021

Sequence	switch fluorescence ratio
GGTGGGGTGC	1.01 ± 0.046
GGTGGGTGTC	0.974 ± 0.016
GGTGGGTTTG	1.03 ± 0.024
GGTGGTCAGC	1.012 ± 0.0049
GGTGGTCCCT	0.99 ± 0.04
GGTGGTGGCC	1.01 ± 0.023
GGTGGTTATC	1.01 ± 0.021
GGTGGTTATT	0.996 ± 0.014
GGTGGTTTGG	1.023 ± 0.0045
GGTGGTTTTG	0.985 ± 0.037
GGTGTAATGG	1.04 ± 0.04
GGTGTAGAGG	1.012 ± 0.0022
GGTGTAGCTA	0.981 ± 0.061
GGTGTAGCTT	1.014 ± 0.0083
GGTGTAGGT	0.986 ± 0.022
GGTGTATGGT	0.985 ± 0.018
GGTGTGGCTC	1 ± 0.044
GGTGTGTGGG	1.01 ± 0.033
GGTGTTAAGA	1.01 ± 0.0043
GGTGTTAGGC	1.01 ± 0.032
GGTGTTATGC	1.01 ± 0.015
GGTGTTCATG	0.974 ± 0.024

Sequence	switch fluorescence ratio
GGTGTTCTGT	0.9665 ± 0.0089
GGTGTTGCAA	1.02 ± 0.016
GGTGTTGTGG	0.9911 ± 0.0093
GGTGTTGTTC	1.01 ± 0.014
GGTGTTTAAT	0.979 ± 0.016
GGTGTTTGGA	0.986 ± 0.0099
GGTGTTTGTA	1.005 ± 0.0094
GGTGTTTTAT	1.02 ± 0.015
GGTGTTTTCA	0.988 ± 0.026
GGTGTTTTG	0.9847 ± 0.007
GGTTAAAAGG	1 ± 0.032
GGTTAAACTT	1.02 ± 0.012
GGTTAAATTA	1.01 ± 0.013
GGTTAACGTC	1.03 ± 0.15
GGTTAAGCCG	0.996 ± 0.017
GGTTAAGCCT	1.05 ± 0.043
GGTTAAGTCT	0.946 ± 0.053
GGTTAATCGT	0.98228 ± 0.00062
GGTTACGTAG	1.045 ± 0.0078
